First the molecules themselves.
B1: CPEB3 Ribozyme (parent)
chain: GGGGGCCACAGCAGAAGCGUUCACGUCGCGGCCCCUGUCAGAUUCUGGUGAAUCUGCGAAUUCUGCUGU

Variants of B1 are the subject of this data set. The data set is described as follows: self-cleavage, relative activity (ratio to wild type); higher = more cleavage; co-transcriptional.
With UAGGGCCACAGCAGAAGCGUUCACGUCGCGGCCCCUGUCAGAUUCUGGUGAAUCUGCGAAUUCUGCUGU [G1U G2A], the self-cleavage was determined as 0.0657.

UCGGGCCACAGCAGAAGCGUUCACGUCGCGGCCCCUGUCAGAUUCUGGUGAAUCUGCGAAUUCUGCUGU [G1U G2C]: the self-cleavage was found to be 0.333.

As for UGGGGCCACAGCAGAAGCAUUCACGUCGCGGCCCCUGUCAGAUUCUGGUGAAUCUGCGAAUUCUGCUGU [G1U G19A], the self-cleavage worked out at 0.0502.

Consider UGGGGCCACAGCAGAAGCGUUCACGUCGCGGCCCCUGUCAGAUUCUGGUGAAGCUGCGAAUUCUGCUGU [G1U U53G], for which the self-cleavage turned out to be 0.101.

UGGGGCCACAGCAGAAGCGUUCACGUCGCGGCCCCUGUCAGAUUCUGGUGAAACUGCGAAUUCUGCUGU [G1U U53A]: the self-cleavage stood at 0.0914.

In the case of UGGGGCCACAGCAGAAUCGUUCACGUCGCGGCCCCUGUCAGAUUCUGGUGAAUCUGCGAAUUCUGCUGU [G1U G17U], the self-cleavage was determined as 0.0803.

In the case of UGGGGCCACAGCAGAAGCGUUCACGUCGCGGCCCCUGUCAGAGUCUGGUGAAUCUGCGAAUUCUGCUGU [G1U U43G], the self-cleavage came out at 0.113.

In the case of UGGGGCCACAGCAGAAGCGUUCACGUCGCGGCCCCUGUCAGACUCUGGUGAAUCUGCGAAUUCUGCUGU [G1U U43C], the self-cleavage stood at 0.127.

UGGGGCCACAGCAGAAGCGUUCACGUCGCGGCCCCUGUCAGAAUCUGGUGAAUCUGCGAAUUCUGCUGU [G1U U43A]: the self-cleavage was found to be 0.0877.

In the case of UGGGGCCACAGCAGAAGCGUUCACGUCGCGGCCCCUGUCAGAUUCUGGUUAAUCUGCGAAUUCUGCUGU [G1U G50U], the self-cleavage came out at 0.056.

As to UGGGGCCACAGCAGAAGCGUUCACGUCGCGGCCCCUGUCAGAUUCUGGUCAAUCUGCGAAUUCUGCUGU [G1U G50C], the self-cleavage stood at 0.0733.

Consider UGGCGCCACAGCAGAAGCGUUCACGUCGCGGCCCCUGUCAGAUUCUGGUGAAUCUGCGAAUUCUGCUGU [G1U G4C], for which the self-cleavage stood at 0.0734.

UGGUGCCACAGCAGAAGCGUUCACGUCGCGGCCCCUGUCAGAUUCUGGUGAAUCUGCGAAUUCUGCUGU [G1U G4U]: the self-cleavage was 0.127.

On to UGGAGCCACAGCAGAAGCGUUCACGUCGCGGCCCCUGUCAGAUUCUGGUGAAUCUGCGAAUUCUGCUGU [G1U G4A], for which the self-cleavage came out at 0.112.

Consider UGGGGCCACAGCAGAAGCGUUCACGUCGCGGCCCCUGUCAGAUUCUGGUGAAUCUGCCAAUUCUGCUGU [G1U G58C], for which the self-cleavage is 0.128.

For UGGGGCCACAGCAGAAGCGUUCACGUCGCGGCCCCUGUCAGAUUCUGGUGAAUCUGCUAAUUCUGCUGU [G1U G58U], the self-cleavage amounted to 0.137.

Turning to UGGGGCCACAGCAGAAGCGUUCACGUCGCGGCCCCUGUCACAUUCUGGUGAAUCUGCGAAUUCUGCUGU [G1U G41C], the self-cleavage was found to be 0.036.

Turning to UGGGGCCACAGCAGAAGCGUUCACGUCGCGGCCCCUGUCAAAUUCUGGUGAAUCUGCGAAUUCUGCUGU [G1U G41A], the self-cleavage was determined as 0.123.

As for UGGGGCCACAGCAGAAGCGUUCACGUCGCGGCCCCUGUCAUAUUCUGGUGAAUCUGCGAAUUCUGCUGU [G1U G41U], the self-cleavage came out at 0.116.

Consider UGGGGCCACAGCAGAAGCGUUCACGUCGCGGCCCCUGUCAGAUUCUGGUGAAUCUGCGAAUUCAGCUGU [G1U U64A], for which the self-cleavage was 0.0494.

Regarding UGGGGCCACAGCAGAAGCGUUCACGUCGCGGCCCCUGUCAGAUUCUGGUGAAUCUGCGAAUUCCGCUGU [G1U U64C], the self-cleavage was determined as 0.0613.

As to UGGGGCCACAGCAGAAGCGUUCACGUCGCGGCCCCUGUCAGAUUCUGGUGAAUCUGCGAAUCCUGCUGU [G1U U62C], the self-cleavage turned out to be 0.0771.

In the case of UGGGGCCACAGCAGAAGCGUUCACGUCGCGGCCCCUGUCAGAUUCUGGUGAAUCUGCGAAUGCUGCUGU [G1U U62G], the self-cleavage came out at 0.0907.

As to UGGGGCCACAGCAGAAGCGUUCACGUCGCGGCCCCUGUCAGAUUCUGGUGAAUCUGCGAAUACUGCUGU [G1U U62A], the self-cleavage was 0.137.

UGGGGCCACAGCAGAAGCGUUCACGUCGCGGCCCCCGUCAGAUUCUGGUGAAUCUGCGAAUUCUGCUGU [G1U U36C]: the self-cleavage came to 0.102.

Consider UGGGGCCACAGCAGAAGCGUUCACGUCGCGGCCCCGGUCAGAUUCUGGUGAAUCUGCGAAUUCUGCUGU [G1U U36G], for which the self-cleavage worked out at 0.0723.

For UGGGGCCACAGCAGAAGCGUUCACGUCGCGGCCCCUAUCAGAUUCUGGUGAAUCUGCGAAUUCUGCUGU [G1U G37A], the self-cleavage was 0.0613.

With UGGGGCCACAGCAGAAGCGUUCACGUCGCGGCCCCUGUCAGAUUCUGGUGAAUCUGCGAAUUAUGCUGU [G1U C63A], the self-cleavage came to 0.101.

UGGGGCCACAGCAGAAGCGUUCACGUCGCGGCCCCUGUCAGAUUCUGGUGAAUCUGCGAAUUUUGCUGU [G1U C63U]: the self-cleavage was 0.0897.

Turning to UGGGGCCACAGCAGAAGCGUUCACGUCACGGCCCCUGUCAGAUUCUGGUGAAUCUGCGAAUUCUGCUGU [G1U G28A], the self-cleavage amounted to 0.0369.

UGGGGCCACAGCAGAAGCGUUCACGUCCCGGCCCCUGUCAGAUUCUGGUGAAUCUGCGAAUUCUGCUGU [G1U G28C]: the self-cleavage was found to be 0.0671.

Consider UGGGGCCACAGCAGAAGCGUUCACGUCGCCGCCCCUGUCAGAUUCUGGUGAAUCUGCGAAUUCUGCUGU [G1U G30C], for which the self-cleavage stood at 0.0755.

On to UGGGGCCACAGCAGAAGCGUUCACGUCGCUGCCCCUGUCAGAUUCUGGUGAAUCUGCGAAUUCUGCUGU [G1U G30U], for which the self-cleavage is 0.0366.

As to UGGGGCCACAGCAGAAGCGUUCACGUCGCGGCCCCUGUCAGAUUCUGGUGAAUCUGCGAAUUCUGCUUU [G1U G68U], the self-cleavage turned out to be 0.173.

On to UGGGGCCACAGCAGAAGCGUUCACGUCGCGGCCCCUGUCAGAUUCUGGUGAAUCUGCGAAUUCUGCUAU [G1U G68A], for which the self-cleavage is 0.129.

Take UGGGGCCACAGCAGAAGCGUUCACGUCGCGGCCCCUGUCAGAUUCUGGUGAAUCUGCGAAUUCUGCUCU [G1U G68C]: the self-cleavage stood at 0.0929.

Turning to UGGGGCCACAACAGAAGCGUUCACGUCGCGGCCCCUGUCAGAUUCUGGUGAAUCUGCGAAUUCUGCUGU [G1U G11A], the self-cleavage turned out to be 0.0662.

With UGGGGCCACAGCAGAAGCGUUCACGUCGCGGCCCCUGUCAGAUUCUGGUGAAUCUGUGAAUUCUGCUGU [G1U C57U], the self-cleavage amounted to 0.0565.

UGGGGCCACAGCAGAAGCGUUCACGUCGCGUCCCCUGUCAGAUUCUGGUGAAUCUGCGAAUUCUGCUGU [G1U G31U]: the self-cleavage was determined as 0.0933.

The values are drawn from the RNAGym collection of RNA variant scans (doi:10.7554/elife.80360).
